± gives the standard deviation of the averaged measurements.
B1: library; a variant is named by its letters at N, in order (parent)
chain: GCUGUCACCGAGAAACUGUGAAGUAUAUCUUAAACCUGGGCACUUAAAAGAUAUAUGGAGUUAGUAGUGCAACCUGCUCGGUCUGAUGAGUCCNNNNNNGGACGAAACAGC

Experiments:
[1] = variants of: B1; test: normalized RNA/DNA level without ligand (relative to sTRSVctl = 100) (log10 (% of sTRSVctl)); HEK293T; ligand: cyclic di-GMP (c-di-GMP-II aptamer); higher = less ribozyme self-cleavage, higher mRNA level; settings: reporter: mCherry (pCS4076), ligand present: no
In short: (§1)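 Total RNA, extracted with EDTA 72 h after HEK293T cells were transfected with 4 µg per 6-well well of reporter-linked ribozyme switch library plasmids, was reverse-transcribed, amplified, barcoded and sequenced. Ligand, if used, was added 1 h before transfection. RNA level was derived from RNA reads divided by DNA reads and normalized to a spiked-in non-cleaving sequence or to the top sequences. This was multiplied by 100 and log10-transformed, with the top set of 25 sequences and a ≥100 DNA read minimum.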

[2] = variants of: B1; test: normalized RNA/DNA level with ligand (relative to sTRSVctl = 100) (log10 (% of sTRSVctl)); HEK293T; ligand: cyclic di-GMP (c-di-GMP-II aptamer); ligand concentration (+) RNA-Seq: 1 mM; higher = less ribozyme self-cleavage, higher mRNA level; settings: reporter: mCherry (pCS4076), ligand present: yes
In short: as §1

## GACUAA
[1]
  normalized RNA/DNA level without ligand (log10): 1.55 ± 0.045
[2]
  normalized RNA/DNA level with ligand (log10): 1.74 ± 0.12

## UAUUUA
[1]
  normalized RNA/DNA level without ligand (log10): 1.707 ± 0.0067
[2]
  normalized RNA/DNA level with ligand (log10): 1.84 ± 0.12

## AGUUCA
[1]
  normalized RNA/DNA level without ligand (log10): 1.62 ± 0.051
[2]
  normalized RNA/DNA level with ligand (log10): 1.8 ± 0.061

## AAAUUA
[1]
  normalized RNA/DNA level without ligand (log10): 1.54 ± 0.04
[2]
  normalized RNA/DNA level with ligand (log10): 1.75 ± 0.11

## GGAACC
[1]
  normalized RNA/DNA level without ligand (log10): 1.74 ± 0.039
[2]
  normalized RNA/DNA level with ligand (log10): 1.86 ± 0.14

## CCACGC
[1]
  normalized RNA/DNA level without ligand (log10): 1.66 ± 0.022
[2]
  normalized RNA/DNA level with ligand (log10): 1.83 ± 0.12

## GAACCU
[1]
  normalized RNA/DNA level without ligand (log10): 1.69 ± 0.033
[2]
  normalized RNA/DNA level with ligand (log10): 1.86 ± 0.08

## UUCCGG
[1]
  normalized RNA/DNA level without ligand (log10): 1.84 ± 0.045
[2]
  normalized RNA/DNA level with ligand (log10): 1.93 ± 0.043

## UGGAGU
[1]
  normalized RNA/DNA level without ligand (log10): 1.59 ± 0.1
[2]
  normalized RNA/DNA level with ligand (log10): 1.76 ± 0.11

## UAGCUC
[1]
  normalized RNA/DNA level without ligand (log10): 1.75 ± 0.022
[2]
  normalized RNA/DNA level with ligand (log10): 1.89 ± 0.1

## CGUCCG
[1]
  normalized RNA/DNA level without ligand (log10): 1.82 ± 0.035
[2]
  normalized RNA/DNA level with ligand (log10): 1.89 ± 0.069

## UAGCAC
[1]
  normalized RNA/DNA level without ligand (log10): 1.708 ± 0.0035
[2]
  normalized RNA/DNA level with ligand (log10): 1.83 ± 0.095

## AGUCGG
[1]
  normalized RNA/DNA level without ligand (log10): 1.8 ± 0.051
[2]
  normalized RNA/DNA level with ligand (log10): 1.87 ± 0.082

## GGCAAG
[1]
  normalized RNA/DNA level without ligand (log10): 1.55 ± 0.019
[2]
  normalized RNA/DNA level with ligand (log10): 1.74 ± 0.15

## GUGCAG
[1]
  normalized RNA/DNA level without ligand (log10): 1.86 ± 0.06
[2]
  normalized RNA/DNA level with ligand (log10): 1.89 ± 0.13

## UAUAGG
[1]
  normalized RNA/DNA level without ligand (log10): 1.68 ± 0.023
[2]
  normalized RNA/DNA level with ligand (log10): 1.85 ± 0.11

## AACGGC
[1]
  normalized RNA/DNA level without ligand (log10): 1.68 ± 0.017
[2]
  normalized RNA/DNA level with ligand (log10): 1.8 ± 0.071

## UAAUUA
[1]
  normalized RNA/DNA level without ligand (log10): 1.7 ± 0.018
[2]
  normalized RNA/DNA level with ligand (log10): 1.85 ± 0.062

## CAACGC
[1]
  normalized RNA/DNA level without ligand (log10): 1.757 ± 0.014
[2]
  normalized RNA/DNA level with ligand (log10): 1.84 ± 0.11

## CGCUCA
[1]
  normalized RNA/DNA level without ligand (log10): 1.47 ± 0.05
[2]
  normalized RNA/DNA level with ligand (log10): 1.68 ± 0.15

## GACCCU
[1]
  normalized RNA/DNA level without ligand (log10): 1.779 ± 0.0057
[2]
  normalized RNA/DNA level with ligand (log10): 1.87 ± 0.089

## AUAAAA
[1]
  normalized RNA/DNA level without ligand (log10): 1.53 ± 0.056
[2]
  normalized RNA/DNA level with ligand (log10): 1.67 ± 0.073

## CACGCG
[1]
  normalized RNA/DNA level without ligand (log10): 1.73 ± 0.028
[2]
  normalized RNA/DNA level with ligand (log10): 1.83 ± 0.062

## GAAGUC
[1]
  normalized RNA/DNA level without ligand (log10): 1.59 ± 0.021
[2]
  normalized RNA/DNA level with ligand (log10): 1.74 ± 0.038

## UUUUAA
[1]
  normalized RNA/DNA level without ligand (log10): 1.725 ± 0.014
[2]
  normalized RNA/DNA level with ligand (log10): 1.86 ± 0.11

## UUAGCC
[1]
  normalized RNA/DNA level without ligand (log10): 1.76 ± 0.082
[2]
  normalized RNA/DNA level with ligand (log10): 1.83 ± 0.13

## UGGCGC
[1]
  normalized RNA/DNA level without ligand (log10): 1.818 ± 0.018
[2]
  normalized RNA/DNA level with ligand (log10): 1.9 ± 0.14

## UUGUGA
[1]
  normalized RNA/DNA level without ligand (log10): 1.599 ± 0.011
[2]
  normalized RNA/DNA level with ligand (log10): 1.79 ± 0.11

Reference: the supplement of paper PMC6757056
